Data taken from paper PMC3904261 (British Journal of Pharmacology, 2013).
Values joined by “and” are separate entries in the source; they are usually repeats but may differ in a detail not shown here. Equal values may be shown once. Bridge positions count the residues as written; N and C are the ends. Ends that are not written are not given here.

Columns and labels:
AMY1(a) receptor = target: T1, AMY1(a) receptor (Homo sapiens, UniProt O60894+P30988); assay: cAMP production in Cos 7 cells via the AMY1(a) receptor; assay type: cell-based; details: AlphaScreen, means ± SEM
T1 construct: HA; expressed in transfected cells; host or cells: Cos 7
Description: SK-N-MC cells were grown in DMEM/F12 medium supplemented with 10% fetal calf serum as described previously (Poyner et al., [1998]). […] Production of cAMP in SK-N-MC cells for all analogues except [[…]]-hαCGRP was by a radioreceptor assay, as described previously (Poyner et al., [1998]). […] For [[…]]-hαCGRP, a different clone of SK-N-MC cells was used and cAMP production was measured via AlphaScreen (Perkin Elmer, Wellesley, MA, USA), as described previously ([…] et al., [2010]). This assay was also used to investigate the action of all derivatives at the AMY1(a) receptor and other experiments using Cos 7 cells. […] GraphPad Prism 5.00 or 6.00 (GraphPad Software Inc., San Diego, CA, USA) was used for data fitting. Concentration-response curves were fitted to a sigmoidal function with Hill slope constrained to unity to obtain pEC50 and maximum responses (Emax) values. Displacement curves were analysed to obtain pIC50 values. Schild plots were fitted by linear regression to obtain slope and intercepts. pEC50 and pIC50 values were compared with that of human αCGRP using Dunnett's test with either a normal or repeated measures one-way ANOVA, as appropriate.

CGRP receptor [1] = target: T2, CGRP receptor (Homo sapiens, UniProt O60894+Q16602); assay: β-arrestin 2 translocation in CHO-K1 cells (PathHunter eXpress); assay type: cell-based; set-up: host or cells: CHO-K1 (PathHunter eXpress β-arrestin kit); details: for β-Arrestin (CHO-K1) Emax (% CGRP) CGRP analogue: 2 h stimulation, means ± SEM, n = 3; for reduction of Emax, β-arrestin 2 translocation: CHO-K1 cells, compared with CGRP
Description: GraphPad Prism 5.00 or 6.00 (GraphPad Software Inc., San Diego, CA, USA) was used for data fitting. Concentration–response curves were fitted to a sigmoidal function with Hill slope constrained to unity to obtain pEC50 and maximum responses (Emax) values. Displacement curves were analysed to obtain pIC50 values. Schild plots were fitted by linear regression to obtain slope and intercepts. pEC50 and pIC50 values were compared with that of human αCGRP using Dunnett's test with either a normal or repeated measures one-way ANOVA, as appropriate.

CGRP receptor [2] = target: T2, CGRP receptor; assay: cAMP production in SK-N-MC cells; assay type: cell-based; set-up: relative expression levels of the receptors (endogenous vs. overexpressed); endogenous in cells; host or cells: SK-N-MC cells (ECACC clone; ATCC clone for [Cys5]-CGRP); details: for cAMP (SK-N-MC) Emax (% CGRP) CGRP analogue: radioreceptor assay, approx. 10 min, means ± SEM, n = 3–6
Description: Production of cAMP in SK-N-MC cells for all analogues except [[…]]-hαCGRP was by a radioreceptor assay, as described previously (Poyner et al., [1998]). […] For [[…]]-hαCGRP, a different clone of SK-N-MC cells was used and cAMP production was measured via AlphaScreen (Perkin Elmer, Wellesley, MA, USA), as described previously ([…] et al., [2010]). This assay was also used to investigate the action of all derivatives at the AMY1(a) receptor and other experiments using Cos 7 cells. […] GraphPad Prism 5.00 or 6.00 (GraphPad Software Inc., San Diego, CA, USA) was used for data fitting. Concentration-response curves were fitted to a sigmoidal function with Hill slope constrained to unity to obtain pEC50 and maximum responses (Emax) values. Displacement curves were analysed to obtain pIC50 values. Schild plots were fitted by linear regression to obtain slope and intercepts. pEC50 and pIC50 values were compared with that of human αCGRP using Dunnett's test with either a normal or repeated measures one-way ANOVA, as appropriate.

[3] = target: T3, CGRP receptor (calcitonin receptor-like receptor in complex with receptor activity-modifying protein 1) (human (endogenous in SK-N-MC), UniProt Q16602 23-461; O60894 27-148); assay: radioligand binding; displacement of ^125I-CGRP from SK-N-MC cell membranes by unlabelled peptides, microcentrifugation-based binding assay; [Cys^5]-CGRP and its control on another batch of SK-N-MC cells; details: one partner purified
[4] = target: AMY_(1(a)) receptor (human HA-tagged CT (a) receptor with human myc-tagged RAMP1) (human) (UniProt O60894)
[5] = target: T3, CGRP receptor (calcitonin receptor-like …); assay: cell-based or functional assay

Chain of AMY_(1(a)) receptor (human HA-tagged CT (a) receptor with human myc-tagged RAMP1) (human) (O60894 whole entry, looked up): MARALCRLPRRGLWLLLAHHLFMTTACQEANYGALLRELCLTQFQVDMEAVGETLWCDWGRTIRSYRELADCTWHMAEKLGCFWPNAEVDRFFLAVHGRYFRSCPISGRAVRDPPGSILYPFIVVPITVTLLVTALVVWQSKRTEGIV
T2 sequence (Q16602 23-461): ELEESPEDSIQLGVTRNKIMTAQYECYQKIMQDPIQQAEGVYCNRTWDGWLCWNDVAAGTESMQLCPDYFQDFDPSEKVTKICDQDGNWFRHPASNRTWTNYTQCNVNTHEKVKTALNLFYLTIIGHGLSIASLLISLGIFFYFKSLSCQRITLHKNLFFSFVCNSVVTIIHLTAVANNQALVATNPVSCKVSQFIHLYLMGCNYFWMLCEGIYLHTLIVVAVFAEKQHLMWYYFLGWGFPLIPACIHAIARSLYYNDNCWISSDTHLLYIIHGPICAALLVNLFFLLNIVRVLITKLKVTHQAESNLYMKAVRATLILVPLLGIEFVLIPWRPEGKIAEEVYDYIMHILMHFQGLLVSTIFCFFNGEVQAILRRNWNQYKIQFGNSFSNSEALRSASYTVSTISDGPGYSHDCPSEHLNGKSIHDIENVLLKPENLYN
T2 sequence (O60894 27-148): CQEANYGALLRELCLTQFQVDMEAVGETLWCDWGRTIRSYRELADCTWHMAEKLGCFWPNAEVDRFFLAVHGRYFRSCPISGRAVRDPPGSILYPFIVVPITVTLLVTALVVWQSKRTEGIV
T3 sequence (Q16602 23-461, chain 1 of 2): as the sequence (Q16602 23-461) above
T3 sequence (O60894 27-148, chain 2 of 2): as the sequence (O60894 27-148) above
T1 sequence (P30988 25-474): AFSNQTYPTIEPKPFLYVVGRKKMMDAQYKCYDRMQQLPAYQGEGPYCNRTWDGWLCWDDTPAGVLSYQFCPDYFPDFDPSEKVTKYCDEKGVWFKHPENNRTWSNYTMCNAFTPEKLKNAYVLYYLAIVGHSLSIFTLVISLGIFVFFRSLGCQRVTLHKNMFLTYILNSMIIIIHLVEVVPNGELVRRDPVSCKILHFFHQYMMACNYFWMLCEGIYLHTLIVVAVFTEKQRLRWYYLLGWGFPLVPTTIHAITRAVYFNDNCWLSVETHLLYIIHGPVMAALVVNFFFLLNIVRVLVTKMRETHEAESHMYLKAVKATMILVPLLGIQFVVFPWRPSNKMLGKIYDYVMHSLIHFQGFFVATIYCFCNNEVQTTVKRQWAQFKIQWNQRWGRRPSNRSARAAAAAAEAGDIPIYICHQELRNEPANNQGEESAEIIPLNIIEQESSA
T1 sequence (O60894 27-148): as the sequence (O60894 27-148) above

## CC(C)C[C@H](NC(=O)CNC(=O)[C@H](C)NC(=O)[C@H](CC(C)C)NC(=O)[C@H](CCCNC(=N)N)NC(=O)[C@H](Cc1c[nH]cn1)NC(=O)[C@@H](NC(=O)[C@@H](NC(=O)[C@@H]1CSSC[C@H](NC(=O)[C@H](C)N)C(=O)N[C@@H](CC(=O)O)C(=O)N[C@@H](C)C(=O)N[C@@H](C)C(=O)N[C@@H]([C@@H](C)O)C(=O)N1)C(C)C)[C@@H](C)O)C(=O)N[C@@H](CC(C)C)C(=O)N[C@@H](CO)C(=O)N[C@@H](CCCNC(=N)N)C(=O)N[C@@H](CO)C(=O)NCC(=O)NCC(=O)N[C@H](C(=O)N[C@H](C(=O)N[C@@H](CCCCN)C(=O)N[C@@H](CC(N)=O)C(=O)N[C@@H](CC(N)=O)C(=O)N[C@@H](Cc1ccccc1)C(=O)N[C@H](C(=O)N1CCC[C@H]1C(=O)N[C@H](C(=O)N[C@@H](CC(N)=O)C(=O)N[C@H](C(=O)NCC(=O)N[C@@H](CO)C(=O)N[C@@H](CCCCN)C(=O)N[C@@H](C)C(=O)N[C@@H](Cc1ccccc1)C(N)=O)C(C)C)[C@@H](C)O)C(C)C)C(C)C)C(C)C [[Ala^4]]
AMY1(a) receptor; n = 3–6
  AMY1(a) receptor-stimulated cAMP Emax (% CGRP) CGRP analogue: 161 ± 45 % CGRP
AMY1(a) receptor; n = 3–6, listed as [Ala^6]
  AMY1(a) receptor-stimulated cAMP Emax (% CGRP) CGRP analogue: 42 ± 11 % CGRP
AMY1(a) receptor; n = 3–6, listed as [Ala^8]
  AMY1(a) receptor-stimulated cAMP Emax (% CGRP) CGRP analogue: 143 ± 11 % CGRP
AMY1(a) receptor; n = 3–6, listed as [Ala^9]
  AMY1(a) receptor-stimulated cAMP Emax (% CGRP) CGRP analogue: 89 ± 9 % CGRP
CGRP receptor [1]
  β-Arrestin (CHO-K1) Emax (% CGRP) CGRP analogue: 73 ± 3 % CGRP
CGRP receptor [1]; listed as [Ala^6]
  β-Arrestin (CHO-K1) Emax (% CGRP) CGRP analogue: 43 ± 2.0 % CGRP
CGRP receptor [1]; listed as [Ala^8]
  β-Arrestin (CHO-K1) Emax (% CGRP) CGRP analogue: 81 ± 3 % CGRP
CGRP receptor [1]; listed as [Ala^9]
  β-Arrestin (CHO-K1) Emax (% CGRP) CGRP analogue: 64 ± 3 % CGRP
CGRP receptor [1]; listed as [Ala^6]-CGRP
  reduction of Emax, β-arrestin 2 translocation: ~60%
CGRP receptor [1]; listed as [Ala^8]-CGRP
  reduction of Emax, β-arrestin 2 translocation: 20%
CGRP receptor [2]; AlphaScreen, second SK-N-MC clone, n = 3–4, read-out: pEC50, cAMP, control experiments for cross-compatibility of the two SK-N-MC cell clones (converted)
  EC50: 26.3 nM and 40.7 nM
CGRP receptor [2]
  cAMP (SK-N-MC) Emax (% CGRP) CGRP analogue: 100 ± 11 % CGRP
CGRP receptor [2]; listed as [Ala^6]
  cAMP (SK-N-MC) Emax (% CGRP) CGRP analogue: 72 ± 12 % CGRP
CGRP receptor [2]; listed as [Ala^8]
  cAMP (SK-N-MC) Emax (% CGRP) CGRP analogue: 104 ± 8 % CGRP
CGRP receptor [2]; listed as [Ala^9]
  cAMP (SK-N-MC) Emax (% CGRP) CGRP analogue: 103 ± 13 % CGRP

## ACDTADCVTHRLAGLLSRSGGVVKNNFVPTNVGSKAF-NH2 (disulfide 2-7) [[Asp^6]-CGRP]
[3]
  pKi: 7.5

B1: [Ala^9]-CGRP (peptide)
chain: ACDTATCVAHRLAGLLSRSGGVVKNNFVPTNVGSKAF-NH2
modifications: disulfide 2-7; N-terminus assumed
SMILES: CC(C)C[C@H](NC(=O)CNC(=O)[C@H](C)NC(=O)[C@H](CC(C)C)NC(=O)[C@H](CCCNC(=N)N)NC(=O)[C@H](Cc1c[nH]cn1)NC(=O)[C@H](C)NC(=O)[C@@H](NC(=O)[C@@H]1CSSC[C@H](NC(=O)[C@H](C)N)C(=O)N[C@@H](CC(=O)O)C(=O)N[C@@H]([C@@H](C)O)C(=O)N[C@@H](C)C(=O)N[C@@H]([C@@H](C)O)C(=O)N1)C(C)C)C(=O)N[C@@H](CC(C)C)C(=O)N[C@@H](CO)C(=O)N[C@@H](CCCNC(=N)N)C(=O)N[C@@H](CO)C(=O)NCC(=O)NCC(=O)N[C@H](C(=O)N[C@H](C(=O)N[C@@H](CCCCN)C(=O)N[C@@H](CC(N)=O)C(=O)N[C@@H](CC(N)=O)C(=O)N[C@@H](Cc1ccccc1)C(=O)N[C@H](C(=O)N1CCC[C@H]1C(=O)N[C@H](C(=O)N[C@@H](CC(N)=O)C(=O)N[C@H](C(=O)NCC(=O)N[C@@H](CO)C(=O)N[C@@H](CCCCN)C(=O)N[C@@H](C)C(=O)N[C@@H](Cc1ccccc1)C(N)=O)C(C)C)[C@@H](C)O)C(C)C)C(C)C)C(C)C
[4]
  Emax (% CGRP), cAMP production in Cos 7 cells with the AMY (1(a)) receptor: 89 % CGRP
  pEC50, cAMP production in Cos 7 cells with the AMY (1(a)) receptor: 8.21
[5]
  Emax (% CGRP), cAMP production in SK-N-MC cells: 103 % CGRP
  Emax (% CGRP), β-arrestin 2 translocation in CHO-K1 cells expressing the human CGRP receptor: 64 % CGRP
  pEC50, cAMP production in SK-N-MC cells: 7.3
  pEC50, β-arrestin 2 translocation in CHO-K1 cells expressing the human CGRP receptor: 8.23

## ACDTAKCVTHRLAGLLSRSGGVVKNNFVPTNVGSKAF-NH2 (disulfide 2-7) [[Lys^6]-CGRP]
[3]
  pKi: 7.76

B2: [Ala^8]-CGRP (peptide)
chain: ACDTATCATHRLAGLLSRSGGVVKNNFVPTNVGSKAF-NH2
modifications: disulfide 2-7; N-terminus assumed
SMILES: CC(C)C[C@H](NC(=O)CNC(=O)[C@H](C)NC(=O)[C@H](CC(C)C)NC(=O)[C@H](CCCNC(=N)N)NC(=O)[C@H](Cc1c[nH]cn1)NC(=O)[C@@H](NC(=O)[C@H](C)NC(=O)[C@@H]1CSSC[C@H](NC(=O)[C@H](C)N)C(=O)N[C@@H](CC(=O)O)C(=O)N[C@@H]([C@@H](C)O)C(=O)N[C@@H](C)C(=O)N[C@@H]([C@@H](C)O)C(=O)N1)[C@@H](C)O)C(=O)N[C@@H](CC(C)C)C(=O)N[C@@H](CO)C(=O)N[C@@H](CCCNC(=N)N)C(=O)N[C@@H](CO)C(=O)NCC(=O)NCC(=O)N[C@H](C(=O)N[C@H](C(=O)N[C@@H](CCCCN)C(=O)N[C@@H](CC(N)=O)C(=O)N[C@@H](CC(N)=O)C(=O)N[C@@H](Cc1ccccc1)C(=O)N[C@H](C(=O)N1CCC[C@H]1C(=O)N[C@H](C(=O)N[C@@H](CC(N)=O)C(=O)N[C@H](C(=O)NCC(=O)N[C@@H](CO)C(=O)N[C@@H](CCCCN)C(=O)N[C@@H](C)C(=O)N[C@@H](Cc1ccccc1)C(N)=O)C(C)C)[C@@H](C)O)C(C)C)C(C)C)C(C)C
[4]
  Emax (% CGRP), cAMP production in Cos 7 cells with the AMY (1(a)) receptor: 143 % CGRP
  pEC50, cAMP production in Cos 7 cells with the AMY (1(a)) receptor: 8.97
[3]
  pKi: 9.42

## CCDTATCVTHRLAGLLSRSGGVVKNNFVPTNVGSKAF-NH2 (disulfide 2-7; also: Cys1 Acm protected, removal not given here) [[Cys^1]-CGRP]
[5]
  Emax (% CGRP), cAMP production in SK-N-MC cells: 71 % CGRP
  Emax (% CGRP), β-arrestin 2 translocation in CHO-K1 cells expressing the human CGRP receptor: 60 % CGRP
  pEC50, cAMP production in SK-N-MC cells: 7.7
  pEC50, β-arrestin 2 translocation in CHO-K1 cells expressing the human CGRP receptor: 8.58
[3]
  pKi: 9.55

## ACDTACCVTHRLAGLLSRSGGVVKNNFVPTNVGSKAF-NH2 (disulfide 2-7; also: Cys6 Acm protected, removal not given here) [[Cys^6]-CGRP]
[3]
  pKi: 9.33
